Blank lines part the entries; values can stand above or below the substance they belong to.
Key:
[1] = target: isolated LIM domain of Pdlim5 fused to a Golgi localization sequence; experiment: Golgi co-relocalization assay (immunofluorescence, Pearson's correlation coefficient); conditions: HT-22 cells; co-expression of GLS-LIM with isolated PDZ 4xMut; parent: est. 0.88; read off a plot
[2] = target: isolated PDZ domain of Pdlim5 fused to a Golgi localization sequence (UniProt Q96HC4); experiment: as above; conditions: HT-22 cells; co-expression of GLS-PDZ with isolated LIM 4xMut; parent: est. 0.84; read off a plot
Chain of UniProt Q96HC4 (Q96HC4 2-85): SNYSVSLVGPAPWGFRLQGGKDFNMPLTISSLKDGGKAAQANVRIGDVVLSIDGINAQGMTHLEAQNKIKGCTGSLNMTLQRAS

[3] = target: Abl2 SH2 domain (UniProt P42684); experiment: GST-domain microarray probed with biotinylated peptide; conditions: reference: unphosphorylated peptide; sites Y251
[4] = target: Yes SH2 domain (UniProt P07947); experiment: as above; conditions: reference: unphosphorylated peptide; sites Y251
[5] = target: Abl1 SH2 domain (UniProt P00519); experiment: as above; conditions: reference: unphosphorylated peptide; sites Y251
[6] = target: Nck2 SH2 domain (UniProt O43639); experiment: as above; conditions: reference: unphosphorylated peptide; sites Y251
[7] = target: Fyn SH2 domain (UniProt P06241); experiment: as above; conditions: reference: unphosphorylated peptide; sites Y251

other: Pearson corr. coef. (r) [1]: 0.08
Substance: isolated PDZ domain of Pdlim5 (not fused to GLS) (from UniProt Q96HC4) P13G; R17A; K34G; K71A

other: Pearson corr. coef. (r) [2]: 0.05
Substance: isolated LIM domain of Pdlim5 (not fused to GLS) C541G; F543A; T562A; C570A

binding against the reference [3]: stronger
binding against the reference [4]: stronger
binding against the reference [5]: stronger
binding against the reference [6]: stronger
binding against the reference [7]: stronger
Substance: Pdlim5 242-261 (from UniProt Q96HC4) pY251 peptide
